{"source": "patent US7148193B2", "about": "“Compounds that bind to growth hormone receptor” (Antyra, Inc., priority 1997, dated 2006)", "key": {"[1]": {"target": "T1, ‘hu’ GHBP (humanized rat GHBP) (Rattus norvegicus, UniProt P16310, L61R)", "T1 construct": "1–48 of GHBP; The 3′ oligo used for this reaction encoded the mutation L43R (CTG→AGA); The second PCR reaction amplified the DNA encoding amino acids 38–260; 6xHis; made in house", "T1 sequence (P16310 19-278 isoform P16310-2 L61R)": "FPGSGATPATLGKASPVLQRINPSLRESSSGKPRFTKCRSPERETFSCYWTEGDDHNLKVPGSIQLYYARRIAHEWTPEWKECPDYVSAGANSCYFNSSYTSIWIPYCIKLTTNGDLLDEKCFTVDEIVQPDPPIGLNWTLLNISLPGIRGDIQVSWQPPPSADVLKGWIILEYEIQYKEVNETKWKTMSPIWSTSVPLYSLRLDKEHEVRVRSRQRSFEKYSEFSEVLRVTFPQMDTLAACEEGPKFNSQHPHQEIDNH", "experiment": "Phage ELISA binding and competition on 'hu' GHBP coated wells", "details": "ELISA signal", "description": "For analysis of individual clones, colonies were picked and phage prepared as described above. Microtiter wells were coated and blocked as described above. Wells were coated with either rGHBP or a control IgG MAb. Phage resuspended in MPBS were added to duplicate wells (100 μl/well) and incubated at room temperature for 1 hr. The phage solution was then removed, and the wells were washed three times with PBS at room temperature. Anti-M13 antibody conjugated to horseradish peroxidase (Pharmacia Biotech) was diluted 1:3000 in MPBS and added to each well (100 μl/well). Incubation was for another hour at room temperature, followed by PBS washes as described. Color was developed by addition of ABTS solution (100 μl/well; Boehringer). Color development was stopped by adjusting each well to 0.5% SDS. Plates were analyzed at 405 nm using a SpectraMax 340 plate reader (Molecular Devices) and SoftMax Pro software. Data points were averaged after subtraction of appropriate blanks. A clone was considered “positive” if the A405 of the well was >2-fold over background.\nHumanized GHBP (‘hu’ GHBP) contained the single amino acid change of rat GHBP amino acids L43 to R43, and was capable of binding human GH, as shown in FIG. 9. Direct immobilization of ‘hu’ GHBP was done as described earlier for panning of the secondary H5 library against rat GHBP and used inputs of ‘hu’ GHBP, prepared as described earlier of 100 μl per well of […] protein. Panning was performed with or without H10 peptide (SEQ ID NO:9; 30 μM) for 4 rounds, and 96 clones were picked.\n(§1) Clones were tested for the presence of E-tag and binding to ‘hu’ GHBP, rGHBP, or BSA-coated wells. Those having specific GHBP binding (i.e., at least 2 fold greater binding to the GHBP than BSA) and with an E-tag positive signal were subjected to DNA sequencing. Three different clones were isolated and tested a second time against GHBP plus and minus GH (1 μM) or BSA (1 μM) coated wells as described. In these tests, huGH was used as competitor with ‘hu’ GHBP coated wells and bovineGH was used as a competitor with rat GHBP coated wells. […] The following open reading frame insertion including the DYKD (SEQ ID NO:79) amino terminal tag and up to the C-terminal E-tag was obtained for these clones; and is shown in Table III: […]"}, "rGHBP [2]": {"target": "T2, rGHBP (Rattus norvegicus, UniProt P16310)", "T2 construct": "1–48 of GHBP; The 3′ oligo used for this reaction encoded the mutation L43R (CTG→AGA); The second PCR reaction amplified the DNA encoding amino acids 38–260; 6xHis; made in house", "T2 sequence (P16310 19-278 isoform P16310-2)": "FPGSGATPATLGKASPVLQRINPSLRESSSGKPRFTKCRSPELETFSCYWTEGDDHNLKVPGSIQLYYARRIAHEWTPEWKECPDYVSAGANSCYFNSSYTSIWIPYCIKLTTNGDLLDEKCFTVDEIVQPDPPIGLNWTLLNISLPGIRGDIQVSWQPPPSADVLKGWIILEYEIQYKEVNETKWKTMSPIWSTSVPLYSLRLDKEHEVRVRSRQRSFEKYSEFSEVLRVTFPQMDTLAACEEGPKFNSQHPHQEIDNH", "experiment": "Time-resolved fluorometric detection (TRFD) of specific bLigand binding to rGHBP and its competition", "description": "For this invention, saEu forms a ternary complex with bP and rGHBP (i.e., the rGHBP:bP:saEu complex). As described herein, the TRFD assay is performed using biotinylated GH (bGH) as bLigand. Biotinylated H5-mutant peptides bP#447 (SEQ ID NO:11) and bP#418 (SEQ ID NO:12) are also used as bLigand (see below). The TRFD assay described herein faithfully reports the competition of ligand binding to the active site of rGHR. To perform the TRFD assays, soluble rGHBP is attached to the surface of microtiter wells, then incubated with bP. Unbound bP is than washed away and (sa)Eu is added to complex with receptor bound bP. The rGHBP:bP bound (sa)Eu is then converted into its highly fluorescent state and detected by TRFD.\nWells were coated with rGHBP(100 ng/well) overnight as described. ED50 and IC50 were calculated from analysis of specific bLigand binding to rGHBP. Competitors were added 1 hr prior to addition of bLigand as described.\nrGHBP (50–200 μg/ml in 50 mM NaHCO3) was coated onto low-fluorescence MaxiSorp (Nunc) plates (100 μl/well) overnight at 4° C. The plates were blocked with PBS containing 2% non-fat milk and 0.05% BSA for 2 hr at room temperature, followed by three PBS washes. For competitions, serial dilutions of unlabelled growth hormone (0.1 nM-100 nM) or MAb 2C3 (0.67–67 nM) were added to the plates (100 μl/well) and incubated at room temperature for 1–2 hr. Biotinylated peptide or biotinylated GH (10× concentrations) were incubated in blocking buffer for 30 min to decrease non-specific binding. Ten microliters of the 10× concentrated material was added to the plates and incubated at room temperature for 1 hr to overnight.\nThe plates were then washed five times with Tris-buffered saline (pH 7.5) containing 0.1% Tween-20 (TTBS). To each well, 100 μl of europium-labeled streptavidin in DELFIA assay buffer (100 mM Tris-HCl, pH 7.8; 150 mM NaCl; 0.5% BSA; 0.05% bovine Ig; 0.05% NaN3; 0.01% Tween-20) was added and incubated for 1.5 hr at room temperature. The plates were then washed five times with TTBS and tapped dry. Subsequently, 100 μl of DELFIA enhancement solution (100 mM acetone-potassium hydrogen phthalate, pH 3.2; 15 mM 2-naphtyltrifluoroacetate; […] tri(n-octyl)-phosphine oxide; 0.1% Triton X-100) was added to each well, and the plates were shaken for 10 min at room temperature. Fluorescence of each sample well was measured at 615 nm using a DELFIA 1234 fluorometer (EG&G Wallac). General procedure and references as described by Wallac are available in “Lanthanide labeling for time-resolved fluorometry”: Wallac publication 1244–1126-03."}, "rGHBP [3]": {"target": "T2, rGHBP", "experiment": "Phage ELISA binding and competition on rGHBP coated wells", "details": "ELISA signal", "description": "For analysis of individual clones, colonies were picked and phage prepared as described above. Microtiter wells were coated and blocked as described above. Wells were coated with either rGHBP or a control IgG MAb. Phage resuspended in MPBS were added to duplicate wells (100 μl/well) and incubated at room temperature for 1 hr. The phage solution was then removed, and the wells were washed three times with PBS at room temperature. Anti-M13 antibody conjugated to horseradish peroxidase (Pharmacia Biotech) was diluted 1:3000 in MPBS and added to each well (100 μl/well). Incubation was for another hour at room temperature, followed by PBS washes as described. Color was developed by addition of ABTS solution (100 μl/well; Boehringer). Color development was stopped by adjusting each well to 0.5% SDS. Plates were analyzed at 405 nm using a SpectraMax 340 plate reader (Molecular Devices) and SoftMax Pro software. Data points were averaged after subtraction of appropriate blanks. A clone was considered “positive” if the A405 of the well was >2-fold over background. […]\nThese clones were next analyzed for binding to the receptor's active sites (FIG. 2B). Competitions of phage binding were done both with the cognate ligand (i.e., GH) and with a specific target-neutralizing MAb 2C3 (Wang, B. S., et al. Mol. Cellular Endocrinology, vol. 116, p. 223–226, 1996).\nas §1"}, "‘hu’ GHBP": {"target": "T3, ‘hu’ GHBP (Rattus norvegicus, UniProt P16310, L61R)", "T3 construct": "1–48 of GHBP; The 3′ oligo used for this reaction encoded the mutation L43R (CTG→AGA); The second PCR reaction amplified the DNA encoding amino acids 38–260; 6xHis; made in house", "T3 sequence (P16310 19-278 isoform P16310-2 L61R)": "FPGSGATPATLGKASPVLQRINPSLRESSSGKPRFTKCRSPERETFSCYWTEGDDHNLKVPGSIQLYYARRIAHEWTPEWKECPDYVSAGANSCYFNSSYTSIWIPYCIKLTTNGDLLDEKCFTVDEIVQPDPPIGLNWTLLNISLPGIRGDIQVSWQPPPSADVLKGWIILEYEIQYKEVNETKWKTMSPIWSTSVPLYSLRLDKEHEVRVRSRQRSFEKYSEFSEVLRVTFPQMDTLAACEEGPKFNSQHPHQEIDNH", "experiment": "Species specificity of binding by ELISA and BIAcore, 'hu' GHBP", "details": "in words", "description": "Wells were coated with either recombinant rGHBP or ‘hu’ GHBP (100 ng/well). Additions of H5 (SEQ ID NO:8) and H10 (SEQ ID NOS:9, 80, and 81) phage (10^10/well) and detection were made as described. […] Streptavidin chips were coated with H5 (SEQ ID NO:8) to 1100 RU as described and rGHBP or ‘hu’ GHBP (500 μg/ml) injected as 30 μl samples.\nGrowth hormone receptors from different species bind human GH as well as their own GH, however human GHR only binds human or monkey GH. […] The sequence of rGHBP was altered by PCR to create a “humanized” version (‘hu’ GHBP; FIG. 9A). Partially purified ‘hu’GHBP (FIG. 9B) was tested for binding using ELISA and BIAcore analysis. […] This was confirmed by BIAcore analysis (FIG. 10B).\nThe biotinylated control peptide (SEQ ID NO:10) was immobilized onto one flow cell of a SA-5 (streptavidin coated) sensor chip to a final density of 700 RU. On a second flow cell, either hGH (1100 RU final density), H5WT peptide (SEQ ID NO:8; 1100 RU final density), or bGH (730 RU final density) was immobilized. GHBP (either rat or humanized) was injected at a concentration of 500 μg/ml with a flow rate of 5 μl/min. Background binding to the control surface was subtracted prior to further analysis."}}}
{"compound": "445: H5-mutant peptide SEQ ID NO:13 (DYKDLCQRLGVGWPGWLAGWCA; #445 peptide) [compound 445]", "values": [{"measurement": "ELISA Competition, ‘hu’GHBP, +BSA", "setting": "[1]; BSA 1 μM", "value": 0.11}, {"measurement": "ELISA Competition, ‘hu’GHBP, +hGH", "setting": "[1]; huGH 1 μM as competitor", "value": 0.12}, {"measurement": "ELISA Competition, ‘hu’GHBP, none", "setting": "[1]; no competitor", "value": 0.14}, {"measurement": "saturation of receptors", "setting": "rGHBP [2]; TRFD", "value": "could not be saturated"}, {"measurement": "ELISA Competition, rGHBP, +BSA", "setting": "rGHBP [3]; BSA 1 μM", "value": 0.44}, {"measurement": "ELISA Competition, rGHBP, +bGH", "setting": "rGHBP [3]; bovine GH 1 μM as competitor", "value": 0.16}, {"measurement": "ELISA Competition, rGHBP, none", "setting": "rGHBP [3]; no competitor", "value": 0.45}]}
{"compound": "C[S+](C)[O-]", "note": "[DMSO]", "values": [{"measurement": "IC50 vs. bGH", "setting": "rGHBP [2]; TRFD, DMSO effect on bGH binding", "value": ">>3%"}, {"measurement": "IC50 vs. bP#418 (SEQ ID NO: 12)", "setting": "rGHBP [2]; TRFD, DMSO effect on bP#418 binding", "value": ">>3%"}, {"measurement": "IC50 vs. bP#447 (SEQ ID NO: 11)", "setting": "rGHBP [2]; TRFD, DMSO effect on bP#447 binding", "value": ">>3%"}, {"measurement": "DMSO IC50", "setting": "rGHBP [2]; specific binding of bGH (3 nM), bP#447 (0.3 μM) and bP#418 (0.3 μM), 0 to 20% DMSO", "value": "> 15 % (v/v)"}]}
{"compound": "human GH: human growth hormone", "values": [{"measurement": "binding to ‘hu’ GHBP", "setting": "‘hu’ GHBP", "value": "bound to human GH"}]}
